The target of this assay is human ERG potassium channel (human) (UniProt Q12809).
Chain of UniProt Q12809 (Q12809 whole entry): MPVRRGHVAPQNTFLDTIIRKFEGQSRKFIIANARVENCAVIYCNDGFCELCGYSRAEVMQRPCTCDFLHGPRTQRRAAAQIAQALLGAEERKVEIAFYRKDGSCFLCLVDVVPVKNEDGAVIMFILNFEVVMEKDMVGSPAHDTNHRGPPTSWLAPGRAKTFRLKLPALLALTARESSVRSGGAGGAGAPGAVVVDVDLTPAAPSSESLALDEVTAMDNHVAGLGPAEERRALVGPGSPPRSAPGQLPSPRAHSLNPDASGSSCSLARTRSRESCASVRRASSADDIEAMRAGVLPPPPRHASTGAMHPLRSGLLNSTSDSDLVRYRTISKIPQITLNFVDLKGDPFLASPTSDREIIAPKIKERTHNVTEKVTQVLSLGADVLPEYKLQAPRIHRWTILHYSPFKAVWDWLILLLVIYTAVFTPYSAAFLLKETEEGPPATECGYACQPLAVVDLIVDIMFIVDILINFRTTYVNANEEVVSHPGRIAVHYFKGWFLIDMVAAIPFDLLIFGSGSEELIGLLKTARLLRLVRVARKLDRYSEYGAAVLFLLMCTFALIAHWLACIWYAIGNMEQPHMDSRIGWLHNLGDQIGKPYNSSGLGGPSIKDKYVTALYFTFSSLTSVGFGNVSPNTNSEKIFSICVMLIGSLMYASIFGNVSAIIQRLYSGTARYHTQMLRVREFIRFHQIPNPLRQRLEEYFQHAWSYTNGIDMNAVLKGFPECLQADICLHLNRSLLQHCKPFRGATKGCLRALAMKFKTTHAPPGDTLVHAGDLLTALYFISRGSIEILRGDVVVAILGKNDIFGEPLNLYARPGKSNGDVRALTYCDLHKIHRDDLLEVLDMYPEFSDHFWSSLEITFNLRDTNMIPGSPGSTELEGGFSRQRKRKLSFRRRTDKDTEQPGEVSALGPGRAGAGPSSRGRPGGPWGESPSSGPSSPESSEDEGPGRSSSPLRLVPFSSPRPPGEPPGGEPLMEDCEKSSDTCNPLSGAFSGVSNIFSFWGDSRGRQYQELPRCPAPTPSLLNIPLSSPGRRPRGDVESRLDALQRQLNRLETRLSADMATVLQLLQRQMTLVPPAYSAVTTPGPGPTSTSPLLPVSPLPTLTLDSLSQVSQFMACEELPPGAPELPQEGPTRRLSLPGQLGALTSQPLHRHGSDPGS

B1: recombinant Phα1β (peptide)
chain: MACIPRGEICTDDCECCGCDNQCYCPPGSSLGIFKCSCAHANKYFCNRKKEKCKKA
As for B1, the IC50 of inhibition of hERG channel activity, thallium flux (FLIPR Potassium Assay) in HEK293-hERG cells is above 900 pmol and the percent inhibition of hERG channel activity, thallium flux (FLIPR Potassium Assay) in HEK293-hERG cells, Phα1β 56-900 pM for 30 minutes; highest value at 900 pM was found to be 13.6%.

The record behind these values is article PMC11748958.
